Experimental data published in patent CN117736314A (ADVACCINE SUZHOU BIOPHARMACEUTICAL CO LTD; UNIV FUDAN, dated 2024).

Molecular target: SARS-CoV-2野生型(WT) S蛋白 (病毒颗粒上) (SARS-CoV-2, UniProt P0DTC2 14-1273)
Assay: cell-based or functional assay

B1: 抗体09C7 (antibody, V domains shown)
VH: QVTLRESGPTLVKPKQTLTLTCTFSGFSLSTPGGGVGWIRQPPGKALEWLALIYWDDDKRYSPSLKSSLTITKDTSKNQVVLTMTNMDPVDTATYYCARLTAADTIFDCWGQGTLVTV
VL: QSALTQPASVSGSPGLSITISCTATSSDVGAYNYVSWYQQHPGQAPKLMIYDVSKRPSGVSNRFSGSKSANTASLTISGLQAEDEADYYCSSYTTTSVVFGGGTKLTVL
  IC50, pseudovirus neutralisation (luciferase, Huh-7 cells): 4 ng/mL
